Reference: patent US20090068637A1

B1: 8H5 single chain antibody (scFv)
scFv: QVQLQQSGAELMKPGASVKISCKATGYTFSNYWIEWIKQRPGHGLEWIGEILPGSDRTNYNGKFKGKATFTADTSSNTAHMQLSSLTSEDSAVYYCANRYDGYYFGLDYWGQGTSVAVSSAGGGGSEIVLTQSPAIMSASLGEKVTMSCRASSSVNFVYWYQQRSDASPKLLIYYSSNLAPGVPPRFSGSGSGNSYSLTISGLEGEDAATYYCQHFTSSPYTFGGGTNLEIKR
B2: 10F7 single chain antibody (scFv)
scFv: QVQLQQPGAELVKPGASVKLSCKASGYTFTSYWMHWVKQRPGQGLEWIGEIDPSDSYTNYNQKFKGKATLTVDKSSSTAYMQLSSLTSEDSAVYYCARGGTGDFHYAMDYWGQGTSVTVSSGGGGSDILMTQSPSSMSVSLGDTVSITCHASQGISSNIGWLQQKPGKSFKGLIYHGTNLEDGVPSRFSGSGSGADYSLTISSLESEDFADYYCVQYVQFPYTFGGGTKLEIKR
B3: monoclonal antibody 8H5 (antibody, V domains shown)
VH: QVQLQQSGAELMKPGASVKISCKATGYTFSNYWIEWIKQRPGHGLEWIGEILPGSDRTNYNGKFKGKATFTADTSSNTAHMQLSSLTSEDSAVYYCANRYDGYYFGLDYWGQGTSVAVSSA
VL: EIVLTQSPAIMSASLGEKVTMSCRASSSVNFVYWYQQRSDASPKLLIYYSSNLAPGVPPRFSGSGSGNSYSLTISGLEGEDAATYYCQHFTSSPYTFGGGTNLEIKR

Columns and labels:
[1] = target: hemagglutinin of subtype H5 avian influenza virus (strain not stated) (avian influenza virus subtype H5)
[2] = target: HA of H5N1 virus strain B7 (avian influenza virus H5N1); assay: cell-based or functional assay
[3] = target: HA of H5N1 virus strain E1 (avian influenza virus H5N1); assay: cell-based or functional assay
[4] = target: HA of H5N1 virus strain A5 (avian influenza virus H5N1); assay: cell-based or functional assay
[5] = target: HA of H5N1 virus strain A8 (avian influenza virus H5N1); assay: cell-based or functional assay
[6] = target: HA of H5N1 virus strain C2 (avian influenza virus H5N1); assay: cell-based or functional assay
[7] = target: HA of H5N1 virus strain A7 (avian influenza virus H5N1); assay: cell-based or functional assay
[8] = target: HA of H5N1 virus strain B3 (avian influenza virus H5N1); assay: cell-based or functional assay
[9] = target: HA of H5N1 virus strain H2 (avian influenza virus H5N1); assay: cell-based or functional assay
[10] = target: HA of H5N1 virus strain A6 (avian influenza virus H5N1); assay: cell-based or functional assay
[11] = target: HA of H5N1 virus strain E2 (avian influenza virus H5N1); assay: cell-based or functional assay
[12] = target: HA of H5N1 virus strain F3 (avian influenza virus H5N1); assay: cell-based or functional assay
[13] = target: HA of H5N1 virus strain H1 (avian influenza virus H5N1); assay: cell-based or functional assay
[14] = target: HA of H5N1 virus strain D2 (avian influenza virus H5N1); assay: cell-based or functional assay
[15] = target: HA of H5N1 virus strain D1 (avian influenza virus H5N1); assay: cell-based or functional assay
[16] = target: HA of H5N1 virus strain B5 (avian influenza virus H5N1); assay: cell-based or functional assay
[17] = target: HA of H5N1 virus strain B8 (avian influenza virus H5N1); assay: cell-based or functional assay
[18] = target: HA of H5N1 virus strain B4 (avian influenza virus H5N1); assay: cell-based or functional assay
[19] = target: HA of H5N1 virus strain G1 (avian influenza virus H5N1); assay: cell-based or functional assay
[20] = target: HA of H5N1 virus strain B2 (avian influenza virus H5N1); assay: cell-based or functional assay
[21] = target: HA of H5N1 virus strain A3 (avian influenza virus H5N1); assay: cell-based or functional assay
[22] = target: HA of H5N1 virus strain F2 (avian influenza virus H5N1); assay: cell-based or functional assay
[23] = target: HA of H5N1 virus strain C3 (avian influenza virus H5N1); assay: cell-based or functional assay
[24] = target: HA of H5N1 virus strain A2 (avian influenza virus H5N1); assay: cell-based or functional assay
[25] = target: HA of H5N1 virus strain A1 (avian influenza virus H5N1); assay: cell-based or functional assay
[26] = target: HA of H5N1 virus strain B6 (avian influenza virus H5N1); assay: cell-based or functional assay
[27] = target: HA of H5N1 virus strain B1 (avian influenza virus H5N1); assay: cell-based or functional assay
[28] = target: HA of virus strain CK/HK/213/03 (avian influenza virus); assay: cell-based or functional assay
[29] = target: HA of virus strain DK/IDN/MS/04 (avian influenza virus); assay: cell-based or functional assay
[30] = target: HA of virus strain Oriental Magpie Robin/HK/366/2006 (avian influenza virus); assay: cell-based or functional assay
[31] = target: HA of virus strain CK/IDN/2A/04 (avian influenza virus); assay: cell-based or functional assay
[32] = target: HA of virus strain BhGs/QH/15/05 (avian influenza virus); assay: cell-based or functional assay
[33] = target: HA of virus strain CP Heron/HK/18/05 (avian influenza virus); assay: cell-based or functional assay
[34] = target: H5 virus strains (thirty-four strains of H5N1 viruses); assay: cell-based or functional assay
[35] = target: 7aa peptide 8H5A (HGMLPVY); assay: phage ELISA: mAb coated at 5 ug/ml, phage 1:1000, anti-M13/HRP
[36] = target: 7aa peptide 8H5E (NSGPWLT); assay: as above

Binder | HI titer (n) (n (dilution 2^n)) [2] | HI titer (n) (n (dilution 2^n)) [3] | HI titer (n) (n (dilution 2^n)) [4] | HI titer (n) (n (dilution 2^n)) [5] | HI titer (n) (n (dilution 2^n)) [6] | HI titer (n) (n (dilution 2^n)) [7] | HI titer (n) (n (dilution 2^n)) [8] | HI titer (n) (n (dilution 2^n)) [9] | HI titer (n) (n (dilution 2^n)) [10] | HI titer (n) (n (dilution 2^n)) [11] | HI titer (n) (n (dilution 2^n)) [12] | HI titer (n) (n (dilution 2^n)) [13] | HI titer (n) (n (dilution 2^n)) [14] | HI titer (n) (n (dilution 2^n)) [15] | HI titer (n) (n (dilution 2^n)) [16] | HI titer (n) (n (dilution 2^n)) [17] | HI titer (n) (n (dilution 2^n)) [18] | HI titer (n) (n (dilution 2^n)) [19] | HI titer (n) (n (dilution 2^n)) [20] | HI titer (n) (n (dilution 2^n)) [21] | other results
B1 | 4 | 0 | 4 | 2.5 | 1 | 3 | 5 | 0 | 3 | 0 | 0 | 0 | 2 | 2.5 | 0 | 3 | 5 | 0 | 0 | 3.5 | average value of the testing wells (ELISA reading) [1]: 0.597; HI titer (n) (n (dilution 2^n)) [22]: 0; HI titer (n) (n (dilution 2^n)) [23]: 0; HI titer (n) (n (dilution 2^n)) [24]: 4.5; HI titer (n) (n (dilution 2^n)) [25]: 3.5; HI titer (n) (n (dilution 2^n)) [26]: 3.5; HI titer (n) (n (dilution 2^n)) [27]: 4
B2 | 7 | 0 | > 8 | 6 | 2 | 6.5 | > 8 | 0 | 7.5 | 0 | 0 | < 1 | 2.5 | 2.5 | 0 | 7 | > 8 | 0 | 0 | > 8 | neutralization test: dilution of 10F7 scFv (fold dilution) [28]: < 1; neutralization test: dilution of 10F7 scFv (fold dilution) [29]: 16; neutralization test: dilution of 10F7 scFv (fold dilution) [30]: < 1; neutralization test: dilution of 10F7 scFv (fold dilution) [31]: 32; neutralization test: dilution of 10F7 scFv (fold dilution) [32]: 16; HI titer (n) (n (dilution 2^n)) [22]: 0; HI titer (n) (n (dilution 2^n)) [23]: 1; HI titer (n) (n (dilution 2^n)) [24]: > 8; HI titer (n) (n (dilution 2^n)) [25]: > 8; HI titer (n) (n (dilution 2^n)) [26]: 7; neutralization test: dilution of 10F7 scFv (fold dilution) [33]: 8; HI titer (n) (n (dilution 2^n)) [27]: 7
B3 |  |  |  |  |  |  |  |  |  |  |  |  |  |  |  |  |  |  |  |  | HI assay: positive number/total virus number (of 34 strains) [34]: 34; ELISA reading [35]: 0.559; ELISA reading [36]: 0.25
